Source: the DeepSol protein solubility set

test: soluble on expression in E. coli; label from the status in PepcDB or PDB records

Sequence	soluble on expression in E. coli
MAHHHHHHMPGIKIEEVISTTKRQRVAAHSHVKGLGLDADGSAKPSADGFVGQVKAREAAGIVVELTRSKKMAGRALLFAGPPGTGKTALALGIAKELGPKVPFCPMVGSEVYSAEVKKTEVLMENFRRAIGLRIKEQKEVYEGEVTELRAEETDNPLGGYGKSIAHVIVTLKSVKGSKQLKLDAAIYESLEKEKVSVGDVIYIEASTGAVKRVGRSDAYIGDHDLEADEYVPLPKGDVHKKKEIIQDVTLHDLDSANAKPNQGQDALSIVNSLMKQKKTEITEKLRHEINKVVNKYIDQGVAELVPGVLFIDEVHMLDIECFTFLNKALESTLAPVVIFATNRGSCRIRGTDIRSPHGIPTDLLDRLLIVRTTNYSIEEIVSIVDIRSQVEGVKVSDASLELLGQIGERTSLRYVVQLLTPALIIAETNGRTVIEAEDVMLVDGLFKDAKASAQLLHEHADEYVYQ	not soluble
MSEQLNADRPKTRRKEPAGRGSASEQKILAAAKELFLADRYDGVNLERIAARAGVSRQTVYNRFGSKETVFREMVRHHWSAFAGPGRDIAECGPDASAEEVLRGFAQSLQRFATETDQIRFAQLVVTESARLPWIADEFYRLGKGPVVVTFADCLDSLVRRGLLRCPDTHLAARQFTGLVQEFLVWPRVMAFEEEVAGQAPPEVVIEEAVLTFLARYAPAADGPGQSV	not soluble
MARAIWKGAISFGLVHIPVALVSATTSNSVDFDWLDKRSMDPVGYKRINKVTGKEVTKENIVKGVLHEKDRYVVLSEEEIRSAHPKSTQTIDIFAFVDSQQIPLQNIDTPYFLTPDKRGEKVYALLRETLVDTQKVALANVVLHTREHLAAVMPLESALVMVILRWPADVRELDALELTEAVTDARLTKSERDMARRLVKDMSADWQPDQYHDTFQEKIMQLVQTKAGEGKIEDVETDPGEEERKSADVIDLTDLLRRSLAGKSSASKTRKPAAKDKVADKQSPKPKRPAVRKKTGKAS	not soluble
MGHHHHHHSHMIDILDVKSRATIQDLGRFGLRRFGISHCGAMDKLALRAGNILLGNAENVPAIEVPLGGITLQFQQDMNFCVTGAFYEMMLDDKPVFAYWRYQVRAGQILKMARAKIGMYGYLCVQGGFVLPQALNSCSTDLRAQIGGIEGRCLQAGDQLQTANDHILRSEIGIAPIPLRDVIRALPSSEYQAFKRKSQYYWWRNEWTLQSNSDRMGYRFQGQTLELKQPLEMLSHAIQFGSVQVPPSGQPIILMADAQTTGGYPKIANVIDADLGALAQVRLGSTIKFEAVSLQEAAKLRRKNEIYLDQIRRIVDEKN	not soluble
MSLNKTKDIAASPLCFVSPYPQLAKAAEALVAQLDYAVTIHQTTLNRILDELPLLESRGHQVLISRGGCAEILKKHSKLPVVEIKMSGYDILDALIPFKGQKGTVGIVGFSSVIKGCARVAEQLNINYKIFTLQGNDKETISCLKRQLASTPLDCIVGDTVCQDYFSPLGSQFRLLDSSPASITEALEEARSLYLAFRSQLLERHHLQLILDQFDKAVITLDDTGALLHYNKYASQLFKINASGEIYDASFLKQVLHQERHTLREGKTVSAKVVDTPQGAMVVNLYPVFAARQLSRVVLTMQTVSSLQGAEHHVRRQELSRRGLSAREGHHHHHH	soluble
PNAIVNRSIPEGVDVFEISGPLFFGAASKFKDAMHVVEKAPSIRILRMRKVMSIDATGLNMLKELFNDCRKSGTTLILSGVHTQPLFAMQQYGLADEIGEENIFGNIDDALDRARSLLGLPVQGRPAGF	not soluble
MLPDVQLLKPEVPIGLSRVGATGIKKLVEVQREGKRPIILISTFDVFVDLPAHLKGVNLSRNFEVIDEVLETLTAKPIENIEDLVVEIADHLLKRHEYATKAEARMNSELIMRKRTPKTGQRTQEVVKIFGEATLGRDGSKVIMVGVEVTGITACPCAQELVKASSAERLAKMGFDEETIQKILDAIPVATHNQRGRATLKVQVTDSFKVPIAKLIDVAKSSMSYETYEILKREDELAVVEAAHRNTRFVEDGVRYMAMELLKTFPNAPDDILVFLRQENEESIHQHNVVAERFATFGELRNEIGSPDASGSSAD	soluble
MSLKTWFITGTSSGFGKELATIVARQSDTQLIAAARHTDDLAYLDVFDATRIEKVSIDVTNESQIKTGVAQAIQRFGTIDVLVNNAGLGYFSTIEESDMAKVRYMFEVNVMGLANVTRTVLPTMRAHHAGIIINLSSALALTTLPTMGFYSATKYAVEGYSDTLRQEVKDLGIQIMTVEPSGARTQWSGRSSQKMVPTIADYAAFSDAITTVSDSVTQAPGNPHRIAQVMFDQANLAEVPAHLPLGEFAYQGGLANLQSIVSEIKSREDLSLSTDEGHHHHHH	not soluble
MVITDTAAWVQSQSRSIVDFISAPNSNSSLPPYVQIGAAAAVTMGLGYYLSKSSSSTSGSYSFSGVTYSGNVKPLVDPMNQSRILPDGSRISAYLKDDELQAFLFEDARTLYQGVRRGARLSNNGPMLGRRVKQSDGSIPYVWESYNTILERADNVSVAFRELGVPTGNAENIGIYSKNRAEWIITEFATYNYSNVIVPIYETLGSEASIFILNQAEIKIVVCDDISKATGLLKFKEQCPSLSTLVVMEPVTDELKTTASSLGVEVLTFEDLEKIGKNAKTRPAHIPPTPEDLATICYTSGTTGTPKGVMLTHANVIADGVCMDFFKHSGIAATDSMISFLPLAHMLERVIESVCFCVGAKVGFYRGDIRVLAEDIKELKPTVVPVVPRVLNRLYDKVMSEVNKSTLKKMLFDFAISYKARDMANFNIRNDGFFDNLVFKKIREGFGGRVRLMITGSAPLSTNVLTFVRAAMGCVVVEGYGQTECVAACTVSMEGDSLAGHVGMVIPSCQIKLVDVPELNYYAKDQAGEVCVKGHIIFKGYYKNEQQTKETIDEDGWLHTGDIGRWTPEGTLKIVDRKKHIFKLSQGEYVAPEKIENIYVRSKYVAQSFVHGESLKTCLIAIVVPDAEVLVPAMADQGIKGTFEELCNNDAVKKAILDDMVAVGKKAGLFSFEQVRDISLSAEQFSVENDLLTPTLKSKRPKLKAHYSKQLDAMYSKLP	not soluble
MDQSIRHLLGNLSLFTPPEEAAVYAEQHAVNKNEPLYFVVFPQADTALSELLVAGYQKLLENNFWGLTNSTQEAKDLMSRYGNTGLELYAHSRGSMTLGNMLYSFQQQGVHGIANENTTINLYGPAFNVLVASDLLGYVSDGKQTTVGFDGHRYDFVSRWIGGNSYTYKTIPSDSNAWKEWWRMFTDPDNPHTCLGDANAICNTLYGSSHLKQKP	not soluble
MYVGYLGPSGSFTHNAALKAFPEASLVSLGTITEVIKSYEEGRVDYAVIPVENSIEGSVHESLDYLFHQADIRAVAEIVQPIKQQLMASKHHAKIEKIFSHPQAIAQGKKYIKDHFPHAKIETTASTAFAARYVADNPDQPYAAIAPHAAAKEYGLEILAKDIQEIEKNYTRFWLLGSTVP	not soluble
LTKRVQEAQAMTEGERRKLSSVLAYMTDGVIATDRRGKVILINTPAEKMLRVKHESANGRSIIDVLDIGDTYQFEDLMEVDGSLTMDRSTLDKPYVLRANFSVIQRETGFNNGVIAVLHDIT	not soluble
MRAEFVNPFLASLMNVLKTMASLELKPQKPRIKKDEIARGDVSGLIGMIGPTTRGSMSITFDESLALEIMQNMLGERPNGLNEEVTDMVGEITNMVTGGAKRILAESGFDFDMATPVVVSGRGHTIRHKCEGAIILMPFSSPWGNAFIEICFE	not soluble
MGSDKIHHHHHHMSTKHAIAAAHFLENKENEAWHDHTLWMVRTKRDKMSHSLPEWERLRELASEIKLYSNSHLDTLLEEFEKNAIANGAIVHWAKDAEEHNEIVLRILRQHDARNLIKSKSMLTEECHMNEFLMSKGIDVVESDLGERILQLMHLAPSHIVMPAIHIKREQISEMMEREMGTEKGNIDPTYLTHAARKNLREKFLHADVAMTGANFAVASTGEIVVCTNEGNADMGTSFPKVHIATMGMEKIVPNLEALGVFTRLLARSGTGQPITSYTSHYRRPPEGQEFHIIIVDNGRSDILAKPDHIRTLNCIRCGECMNTCPVYRRSGGYSYTYFIPGPIGINLGMLRNPEEYSDNVSACSLCLSCSNVCPVKIDLGEQIYRWRQDLDKIGKASKEKKVMSFGMKFLMERSGLFNTALKFAPVVNHLPRFMVYNGLNAWGKGRELPAFAKESFNDMWKNNKVR	not soluble
MSKTVTIRRPSPTKTSEEPAAHQTPIFTQTAAEMLGITSLNTEAAELLEFLSREKLKEIVRLSAKWTQKSARRRMAVADVEHAIRSTRQCGGLNISSVDTLNLGIQQLQPIQGTSTGIYSFLKSSADVDVDKEDTETFIKIPRDLRVISYPLVNEGQPVQSEYTVNVDEDDGNFFEKIVPEVMTMIPEKNTPSSSTTSSLQMFRDAVKTAKIDQKVGLKPSTIEILTVEQQIFMKDIITVCMGQDDKKRHEALYTLETDAGLQVFLPHLTERICKSISANISQRCLSLIIYAGRVLRSLSHNKACDMTVTLHHVLPALLSCCVGRNMCLRPETDNHWALRDFSAKTLVGLVRDQVDKHDAGRTARRLFDFSHRIFRDTGSSFSMIYGTVHILQEFVAGPKKAAWLLTELGETNARCKSHIESGSRIGASQLSIQEAQKLNQQILKCENSIRNRYNLQQQAPGVPINRRFH	not soluble
DDEFLRGKRVLVVDDNFISRKVATGKLKKMGVSEVEQCDSGKEALRLVTEGLTQREEQGSVDKLPFDYIFMDCQMPEMDGYEATREIRKVEKSYGVRTPIIAVSGHDPGSEEARETIQAGMDAFLDKSLNQLANVIREIESKR	soluble
MGSTKSRPLRDANGTPKFRHESIACVFRVHPQQGVDVLTVIRSRPPYADMSALPSGALETNEMLKDACLRHLSLSGVHPSMVSHIEQLDTRSAIDRDPYDRTIATAHLCLIPWDIDPSVTNGSFTPLVDLDELAFDHKNIIEQGLYRLRAKLSYSNIGFALAPRLFTISDLAKTYSHVLTYNVSPTNLQRILTRRNQLQPTTARAIGSGRPARLFTFTTDRLEITDPFATLKPTESRKCKS	not soluble
MVSEMLSEAGHSVSYLKGGMKAWSEHLEPVKVGDLKDGGEMYQFVRIGKGCLSYMVISNGEAAIIDATRMVNFFIDFAKGKGATITHVFDTHLHADHISGGRVIAEKTKATYWLPPKDAEEVEFDYQPLEEGNDIIIGNTTIKIQPIYSPGHTIGSTSFIVDDQYLLSGDILFIDSIGRPDLAGMAEDWVGDLRKTLYSRYKALSKDLIVLPAHFMIIDELNENGSVGKQLSTLFSENHGLNIADETEFRHLVTDHLPPQPNAYQEIRETNMGKISPDEEKQREMEIGPNRCAIRLEHHHHHH	not soluble
DIINFFKQITDHEPYDYQIRAWEKINKIMELGGRVVIEIPTAGGKTEAAIIPYLYQFISNDWKVPRLIYVLPTRSLVEKQVERIRNYIKKILEIKGYSKDKVEELAKKIVQVEYGLEETHAFLGFVVLTTWDTFLYGLAAHRTVGDRFTFPCGAIAQSLVVFDEIQMYQDESLYMPRLIGLVVKRLVEANVPLVFMTATLPTELKKILGIHDEEPITVNPEDT	not soluble
MLQKPKSVKLRALRSPRKFGVAGRSCQEVLRKGCLRFQLPERGSRLCLYEDGTELTEDYFPSVPDNAELVLLTLGQAWQGYVSDIRRFLSAFHEPQVGLIQAAQQLLCDEQAPQRQRLLADLLHNVSQNIAAETRAEDPPWFEGLESRFQSKSGYLRYSCESRIRSYLREVSSYPSTVGAEAQEEFLRVLGSMCQRLRSMQYNGSYFDRGAKGGSRLCTPEGWFSCQGPFDMDSCLSRHSINPYSNRESRILFSTWNLDHIIEKKRTIIPTLVEAIKEQDGREVDWEYFYGLLFTSENLKLVHIVCHKKTTHKLNCDPSRIYKPQTRLKRKQPVRKRQLEHHHHHH	not soluble
MISVMQQMINNDSPEDSKESITSVQQTPFFWPSAAAAIPSIQGESRSERESETGSSPQLAPSSTGMVMPGTAGMYGFGPSRMPTANEFGMMMNPVYTDFYQNPLASTGWYSYGQPYQFTANYSIPSLDGNLSDITIPTTAGSSAATTPNAAMHLPWAISHDGKKKRQPYKKDQISRLEYEYSVNQYLTNKRRSELSAQLMLDEKQVKVWFQVCYRQYSAESLEIINVNFYLMS	not soluble
